{
  "source": "paper doi:10.1101/2020.02.11.943977",
  "molecular_target": "Replication protein A (RPA heterotrimer) (human) (UniProt P27694+P15927+P35244)",
  "sequence (P27694 whole entry, chain 1 of 3)": "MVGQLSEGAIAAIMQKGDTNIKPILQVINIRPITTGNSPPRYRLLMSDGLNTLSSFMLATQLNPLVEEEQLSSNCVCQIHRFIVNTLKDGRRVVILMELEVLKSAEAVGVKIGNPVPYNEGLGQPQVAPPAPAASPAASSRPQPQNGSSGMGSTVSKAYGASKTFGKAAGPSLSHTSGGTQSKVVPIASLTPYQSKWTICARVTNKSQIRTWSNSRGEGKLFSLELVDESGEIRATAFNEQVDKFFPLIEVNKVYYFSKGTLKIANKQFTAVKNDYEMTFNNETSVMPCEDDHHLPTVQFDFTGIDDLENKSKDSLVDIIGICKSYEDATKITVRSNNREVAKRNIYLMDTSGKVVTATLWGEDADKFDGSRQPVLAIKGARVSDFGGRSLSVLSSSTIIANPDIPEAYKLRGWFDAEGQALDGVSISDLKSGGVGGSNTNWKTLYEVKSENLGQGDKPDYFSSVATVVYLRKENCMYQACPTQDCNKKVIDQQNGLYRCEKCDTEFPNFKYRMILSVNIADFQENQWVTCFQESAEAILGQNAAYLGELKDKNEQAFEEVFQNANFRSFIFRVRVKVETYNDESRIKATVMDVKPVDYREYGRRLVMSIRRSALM",
  "sequence (P15927 whole entry, chain 2 of 3)": "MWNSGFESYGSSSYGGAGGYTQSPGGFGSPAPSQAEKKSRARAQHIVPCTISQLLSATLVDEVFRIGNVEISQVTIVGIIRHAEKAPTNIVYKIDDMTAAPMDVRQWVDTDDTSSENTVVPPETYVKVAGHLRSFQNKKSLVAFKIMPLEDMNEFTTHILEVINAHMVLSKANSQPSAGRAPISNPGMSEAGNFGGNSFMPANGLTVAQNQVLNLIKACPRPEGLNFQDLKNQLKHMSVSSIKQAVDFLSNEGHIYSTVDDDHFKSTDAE",
  "sequence (P35244 whole entry, chain 3 of 3)": "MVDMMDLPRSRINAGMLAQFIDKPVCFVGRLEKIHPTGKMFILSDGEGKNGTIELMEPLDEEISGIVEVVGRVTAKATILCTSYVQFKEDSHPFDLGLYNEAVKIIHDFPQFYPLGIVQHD",
  "assay": "competition",
  "data": [
    {"substance": "pHSG299 supercoiled plasmid", "values": [
      {"measurement": "binding signal", "setting": "scale: fold lower affinity than RNA 501", "value": 500},
      {"measurement": "binding signal", "setting": "scale: fold lower affinity than ssDNA 211", "value": 33000}
    ]}
  ]
}
